Measured values published in patent publication US20200308277A1.

Assays:
huTIM-3/his (human) [1] = biological target: huTIM-3/his (human) (UniProt Q8TDQ0); experiment: SPR (Biacore) competition; 2nd antibody injection after 1st antibody ABTIM3-hum21 (competitor)
huTIM-3/his (human) [2] = biological target: huTIM-3/his (human) (UniProt Q8TDQ0); experiment: SPR (Biacore) competition; 2nd antibody injection after 1st antibody huIgG1 (competitor)
huTIM-3/his (human) [3] = biological target: huTIM-3/his (human) (UniProt Q8TDQ0); experiment: SPR (Biacore) competition; 2nd antibody injection after 1st antibody ABTIM3-hum03 (competitor)
huTIM-3/his (human) [4] = biological target: huTIM-3/his (human) (UniProt Q8TDQ0); experiment: SPR (Biacore) competition; 2nd antibody injection after 1st antibody ABTIM3-hum11 (competitor)
huTIM-3/his (human) [5] = biological target: huTIM-3/his (human) (UniProt Q8TDQ0); experiment: SPR (Biacore) competition, hTIM-3/his captured by anti-His antibody; 1st antibody injection

Chain of huTIM-3/his (human) (Q8TDQ0 22-202 limits assumed): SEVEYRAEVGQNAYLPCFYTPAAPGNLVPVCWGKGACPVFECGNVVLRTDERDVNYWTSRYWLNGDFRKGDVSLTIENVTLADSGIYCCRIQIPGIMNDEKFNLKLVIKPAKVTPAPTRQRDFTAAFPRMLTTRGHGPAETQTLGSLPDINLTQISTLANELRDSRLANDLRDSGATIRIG

change in RU (huTIM-3/his (human) [1]): 4.5 RU
change in RU (huTIM-3/his (human) [2]): 3.6 RU
change in RU (huTIM-3/his (human) [3]): 4.5 RU
change in RU (huTIM-3/his (human) [4]): 3.8 RU
change in RU (huTIM-3/his (human) [5]): 0.27 RU
Substance: huIgG1 (antibody)
